By EC50 is commonly meant the concentration giving half of the maximal effect.

Where no end group is shown, it is not given here.

This passage reports EC50 results from patent US20220184221A1 (published 2022).

Holding throughout (test): inhibition of recombinant KDM5 demethylase activity (H3K4me3 peptide); legend calls it IC50
The target of one assay is KDM5A.
For a further assay, the target named is KDM5B.
A further assay addresses T1, recombinant KDM5C (UniProt P41229 1-765).
T1 chain: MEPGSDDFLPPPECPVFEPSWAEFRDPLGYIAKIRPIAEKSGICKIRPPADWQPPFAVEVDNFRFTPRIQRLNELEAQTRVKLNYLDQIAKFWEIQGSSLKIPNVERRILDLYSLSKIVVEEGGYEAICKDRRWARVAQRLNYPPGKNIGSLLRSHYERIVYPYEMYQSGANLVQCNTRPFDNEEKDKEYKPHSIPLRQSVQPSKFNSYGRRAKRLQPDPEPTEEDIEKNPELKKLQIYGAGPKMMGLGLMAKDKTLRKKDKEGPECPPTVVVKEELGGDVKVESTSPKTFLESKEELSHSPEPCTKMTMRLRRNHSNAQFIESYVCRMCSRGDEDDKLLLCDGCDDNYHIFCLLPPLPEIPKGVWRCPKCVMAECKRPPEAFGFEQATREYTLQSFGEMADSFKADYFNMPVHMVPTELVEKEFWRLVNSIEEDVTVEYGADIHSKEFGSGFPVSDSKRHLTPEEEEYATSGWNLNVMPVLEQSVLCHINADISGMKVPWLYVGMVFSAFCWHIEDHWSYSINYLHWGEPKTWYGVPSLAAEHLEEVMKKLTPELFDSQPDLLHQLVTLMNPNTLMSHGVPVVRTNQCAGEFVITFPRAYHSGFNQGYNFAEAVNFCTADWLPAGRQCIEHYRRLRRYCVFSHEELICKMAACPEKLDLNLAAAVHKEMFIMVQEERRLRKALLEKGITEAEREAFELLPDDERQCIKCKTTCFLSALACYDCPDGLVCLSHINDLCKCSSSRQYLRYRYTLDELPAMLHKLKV

Take TEDSKTHHH (also: fluorescein label in FP assay, end not given here) [EP4]: the EC50 with KDM5A turned out to be 422 nM; in the assay with KDM5B, 377 nM; with recombinant KDM5C, 0.97 nM.
